Assay [1] addresses T1, human IL-13 R130Q variant (R110Q of the mature chain) (human, UniProt P35225 35-146, Biotinylated on amines (NHS-LC-biotin, 4:1) in ELISA, panning and competition assays. The letters are unchanged.).
T1 construct: R130Q counts from Met 1 of the signal peptide, R110Q on the mature chain; Bought from Peprotech; also called IL-13 R110Q; b-R130Q
Briefly: competition ELISA, biotinylated IL-13 R130Q binding to plate-bound IL-13Ra2, crude supernatant.

The target in assay [2] is T1, human IL-13 R130Q variant (R110Q of the …). Briefly: direct binding ELISA, mAb captured by anti-human Fc, biotinylated IL-13 R130Q, crude supernatant.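 Note: 100% is the positive control mAb signal.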
For assay [3] the target is unchanged. Briefly: single-point (10 nM) phage Fab ELISA on biotinylated IL-13 R130Q.

Changes are numbered by the printed parent chain.

B1: Lc4Hc2 (antibody, V domains shown)
VH: QVTLKESGPVLVKPTETLTLTCTVSGFSLSTYGMGVGWIRQPPGKALEWLAHIWWDDVKRYNPALKSRLTISKDTSKSQVVLTMTNMDPVDTATYYCARMGSDYDVWFDYWGQGTLVTVSS
VL: DIQMTQSPSSLSASVGDRVTITCRASKSISKYLAWYQQKPGKAPKRLIYSGSTLQSGVPSRFSGSGSGTEFTLTISSLQPEDFATYYCQQHNEYPYTFGGGTKVEIK
With B1, in assay [1], the “Percent Inhibition IL-13 R130Q (333 ng/ml) to Ra2” value (from here on “Percent Inhibition IL-13 R130Q”) amounted to 55%. In assay [2], the “Percent IL-13 R130Q (30 ng/ml) Binding” value turned out to be 84.7%.

B2: Lc15Hc2 (antibody, V domains shown)
VH: B1 VH
VL: B1 VL with D1V, Q3W, S10L, V15T, T22S, K45E, R46L, E70D, S77C, P80S
For B2, the “Percent Inhibition IL-13 R130Q” value in assay [1] stood at 61%. The “Percent IL-13 R130Q (30 ng/ml) Binding” value in assay [2] is 94.8%.

B3: Lc3Hc6 (antibody, V domains shown)
VH: QVQLVESGGGVVQPGRSLRLSCAASGFSLSTYGMGVGWVRQAPGKGLEWVAHIWWDDVKRYNPALKSRFTISRDNSKNTLYLQMNSLRAEDTAVYYCARMGSDYDVWFDYWGQGTLVTVSS
VL: B1 VL with D1A, M4L, R46L, E70D
B3: in assay [1], the “Percent Inhibition IL-13 R130Q” value was found to be 14%. The “Percent IL-13 R130Q (30 ng/ml) Binding” value in assay [2] was determined as 26.6%.

B4: Lc15Hc1 (antibody, V domains shown)
VH: B1 VH with V10A, E16Q, V24F, S78N
VL: B1 VL with D1V, Q3W, S10L, V15T, T22S, K45E, R46L, E70D, S77C, P80S
As to B4, the “Percent Inhibition IL-13 R130Q” value in assay [1] was 44%. The “Percent IL-13 R130Q (30 ng/ml) Binding” value in assay [2] was found to be 76.2%.

B5: Lc7Hc1 (antibody, V domains shown)
VL: B1 VL with M4L, Q37R, A43V, R46L, E70D, F83V, C88G, G100Q, V104L
VH: B1 VH with V10A, E16Q, V24F, S78N
For B5, the “Percent Inhibition IL-13 R130Q” value in assay [1] is 6%. In assay [2], the “Percent IL-13 R130Q (30 ng/ml) Binding” value is -1.4%.

B6: Lc5Hc2 (antibody, V domains shown)
VH: B1 VH
VL: B1 VL with M4L, S10F, R46L, G100Q
B6: the “Percent Inhibition IL-13 R130Q” value in assay [1] is 57%. For the same molecule, the “Percent IL-13 R130Q (30 ng/ml) Binding” value in assay [2] was 85.9%.

B7: Lc7Hc6 (antibody, V domains shown)
VL: B1 VL with M4L, Q37R, A43V, R46L, E70D, F83V, C88G, G100Q, V104L
VH: B3 VH
B7: the “Percent Inhibition IL-13 R130Q” value in assay [1] is 4%. In addition, in assay [2], the “Percent IL-13 R130Q (30 ng/ml) Binding” value was -0.3%.

B8: Fab clone 2G06 (IL-13-62 library) (Fab, V domains shown)
VH: B1 VH
VL: EIVLTQSPATLSLSPGERATLSCRASKSISKYLAWYQQKPGQAPRLLIYSGSTLQGGIPARFSGSGSGTDFTLTISSLEPEDFAVYYCQQHLDSPYTFGQGTKLEIK
notes: Fab on phage pIX
With B8, the “Signal (% of Lc16Hc7)” value in assay [3] was determined as 112%.

B9: Fab clone 3H12 (IL-13-62 library) (Fab, V domains shown)
VH: B1 VH
VL: B8 VL with G56S, L92D, D93S, S94G
notes: Fab on phage pIX
B9: the “Signal (% of Lc16Hc7)” value in assay [3] was determined as 120%.

B10: Fab clone 3F08 (IL-13-62 library) (Fab, V domains shown)
VH: B1 VH
VL: B8 VL with G56S, D93M, S94G
notes: Fab on phage pIX
As to B10, in assay [3], the “Signal (% of Lc16Hc7)” value is 111%.

B11: Fab clone 3D11 (IL-13-62 library) (Fab, V domains shown)
VH: B1 VH
VL: B8 VL with G56S, D93N, S94G
notes: Fab on phage pIX
Consider B11, for which the “Signal (% of Lc16Hc7)” value in assay [3] was 136%.

B12: Fab clone 3E03 (IL-13-62 library) (Fab, V domains shown)
VH: B1 VH
VL: B8 VL with G56S, L92S, D93I, S94G
notes: Fab on phage pIX
As to B12, the “Signal (% of Lc16Hc7)” value in assay [3] worked out at 122%.

B13: Lc12Hc1 (antibody, V domains shown)
VH: B1 VH with V10A, E16Q, V24F, S78N
VL: B1 VL with G41E, R46S, E70D
Regarding B13, the “Percent Inhibition IL-13 R130Q” value in assay [1] came out at 26%. Further, in assay [2], the “Percent IL-13 R130Q (30 ng/ml) Binding” value was determined as 36.4%.

B14: Fab clone 2E07 (IL-13-62 library) (Fab, V domains shown)
VH: B1 VH
VL: B8 VL with G56S, H91P, D93E, S94A
notes: Fab on phage pIX
As for B14, the “Signal (% of Lc16Hc7)” value in assay [3] was determined as 104%.

B15: Fab clone 3G05 (IL-13-62 library) (Fab, V domains shown)
VH: B1 VH
VL: B8 VL with G56S, H91P
notes: Fab on phage pIX
As for B15, the “Signal (% of Lc16Hc7)” value in assay [3] came out at 108%.

B16: Fab clone 3C01 (IL-13-62 library) (Fab, V domains shown)
VH: B1 VH
VL: B8 VL with G56S, L92N, D93F, S94G
notes: Fab on phage pIX
With B16, the “Signal (% of Lc16Hc7)” value in assay [3] amounted to 124%.

B17: Fab clone 2D09 (IL-13-62 library) (Fab, V domains shown)
VH: B1 VH
VL: B8 VL with G56S, L92N, D93V, S94G
notes: Fab on phage pIX
Regarding B17, the “Signal (% of Lc16Hc7)” value in assay [3] came out at 108%.

B18: Lc11Hc2 (antibody, V domains shown)
VH: B1 VH
VL: B1 VL with D1A, Q3R, L11F, V15T, R46L, E70D, S77C, P80S
Regarding B18, the “Percent Inhibition IL-13 R130Q” value in assay [1] was 51%. Moreover, in assay [2], the “Percent IL-13 R130Q (30 ng/ml) Binding” value is 92.2%.

B19: Fab clone 4F07 (IL-13-62 library) (Fab, V domains shown)
VH: B1 VH
VL: B8 VL with G56S, H91P, L92I, S94A
notes: Fab on phage pIX
Take B19: the “Signal (% of Lc16Hc7)” value in assay [3] worked out at 116%.

B20: Fab clone 4D01 (IL-13-62 library) (Fab, V domains shown)
VH: B1 VH
VL: B8 VL with G56S, H91P, S94V
notes: Fab on phage pIX
Take B20: the “Signal (% of Lc16Hc7)” value in assay [3] came to 140%.

B21: Fab clone 2A11 (IL-13-62 library) (Fab, V domains shown)
VH: B1 VH
VL: B8 VL with G56S, L92S, D93H, S94G
notes: Fab on phage pIX
Take B21: in assay [3], the “Signal (% of Lc16Hc7)” value was found to be 132%.

B22: Fab clone 3G01 (IL-13-62 library) (Fab, V domains shown)
VH: B1 VH
VL: B8 VL with G56S, H91Q, L92D, D93L, S94G
notes: Fab on phage pIX
Turning to B22, in assay [3], the “Signal (% of Lc16Hc7)” value turned out to be 122%.

B23: Lc10Hc2 (antibody, V domains shown)
VH: B1 VH
VL: B1 VL with M4L, S10F, R46L
Regarding B23, the “Percent Inhibition IL-13 R130Q” value in assay [1] was determined as 57%. Moreover, the “Percent IL-13 R130Q (30 ng/ml) Binding” value in assay [2] turned out to be 78.9%.

B24: Fab clone 4B10 (IL-13-62 library) (Fab, V domains shown)
VH: B1 VH
VL: B8 VL with G56S, L92F, D93W, S94G
notes: Fab on phage pIX
As to B24, the “Signal (% of Lc16Hc7)” value in assay [3] turned out to be 117%.

B25: Fab clone 3A10 (IL-13-62 library) (Fab, V domains shown)
VH: B1 VH
VL: B8 VL with G56S, L92V, D93W, S94G
notes: Fab on phage pIX
Take B25: the “Signal (% of Lc16Hc7)” value in assay [3] came to 160%.

B26: Fab clone 2A07 (IL-13-62 library) (Fab, V domains shown)
VH: B1 VH
VL: B8 VL with G56S, L92D, D93P, S94G
notes: Fab on phage pIX
B26: the “Signal (% of Lc16Hc7)” value in assay [3] worked out at 136%.

B27: Fab clone 1H12 (IL-13-62 library) (Fab, V domains shown)
VH: B1 VH
VL: B8 VL with G56S, L92D, D93L, S94G
notes: Fab on phage pIX
On to B27, for which, in assay [3], the “Signal (% of Lc16Hc7)” value was 111%.

Values taken from patent publication US20120045438A1 (Janssen / Centocor, published 2012).
